# Measured values from patent US9809653B2, “Anti-LAMP1 antibodies and antibody drug conjugates, and uses thereof” (SANOFI, priority 2012, dated 2017).
# Numbering of substitutions follows the chain as printed.
# T1: Hybrid LAMP1 / glycan-deleted LAMP1 transmembrane proteins (Mus musculus, UniProt P11438, A146K/E181G/G176S/K100R/K140R/K180R/L93T/N144D/N177S/S175N/T102A/Y92H)
# T1 construct: expressed in transfected cells; host or cells: 293-F (HEK293-derived), transient transfection
# T1 sequence (P11438 with tags, fused parts or gaps Y92H/L93T/K100R/T102A/K140R/N144D/A146K/S175N/G176S/N177S/K180R/E181G): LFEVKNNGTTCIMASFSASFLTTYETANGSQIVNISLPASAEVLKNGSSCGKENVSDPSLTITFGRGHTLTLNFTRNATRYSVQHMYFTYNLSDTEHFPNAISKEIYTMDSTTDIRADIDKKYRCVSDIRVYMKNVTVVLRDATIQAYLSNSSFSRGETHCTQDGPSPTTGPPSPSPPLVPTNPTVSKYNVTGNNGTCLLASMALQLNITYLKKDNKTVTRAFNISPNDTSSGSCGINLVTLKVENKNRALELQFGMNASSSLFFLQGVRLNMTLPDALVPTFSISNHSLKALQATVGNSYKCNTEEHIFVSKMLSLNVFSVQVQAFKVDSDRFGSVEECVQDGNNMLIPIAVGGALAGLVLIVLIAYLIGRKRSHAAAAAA
# T2: Alascan LAMP1 transmembrane proteins (hLAMP1_ΔGYQTI mutants) (Homo sapiens, UniProt P11279, D150A)
# T2 construct: expressed in transfected cells; host or cells: HEK293 (293-F), transient transfection
# T2 sequence (P11279 with tags, fused parts or gaps D150A): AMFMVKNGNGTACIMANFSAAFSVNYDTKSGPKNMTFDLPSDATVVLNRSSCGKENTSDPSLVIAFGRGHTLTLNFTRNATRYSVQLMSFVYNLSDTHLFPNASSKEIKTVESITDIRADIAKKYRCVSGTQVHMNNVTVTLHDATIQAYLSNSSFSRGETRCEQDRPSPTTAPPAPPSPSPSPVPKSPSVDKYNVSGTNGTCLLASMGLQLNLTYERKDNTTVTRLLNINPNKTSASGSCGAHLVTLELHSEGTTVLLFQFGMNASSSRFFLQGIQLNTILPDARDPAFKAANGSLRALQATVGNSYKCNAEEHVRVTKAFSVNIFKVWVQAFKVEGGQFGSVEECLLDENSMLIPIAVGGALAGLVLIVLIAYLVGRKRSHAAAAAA
# T3: Alascan LAMP1 transmembrane proteins (hLAMP1_ΔGYQTI mutants) (Homo sapiens, UniProt P11279, I149A)
# T3 construct: expressed in transfected cells; host or cells: HEK293 (293-F), transient transfection
# T3 sequence (P11279 with tags, fused parts or gaps I149A): T2 sequence (P11279 with tags, fused parts or gaps D150A) with I121A, A122D
# T4: Alascan LAMP1 transmembrane proteins (hLAMP1_ΔGYQTI mutants) (Homo sapiens, UniProt P11279, R186A)
# T4 construct: expressed in transfected cells; host or cells: HEK293 (293-F), transient transfection
# T4 sequence (P11279 with tags, fused parts or gaps R186A): T2 sequence (P11279 with tags, fused parts or gaps D150A) with A122D, R158A
# B1: MAb1: murine monoclonal anti-LAMP1 antibody, VH SEQ ID NO: 1, VL SEQ ID NO: 5 (antibody, V domains shown)
# VH: QVQLQQSGAELVKPGASVKMSCKASGYIFTNYNIHWVKKSPGQGLEWIGAIYPGNGDAPYSQKFKDKATLTADKSSSTTYMQLSRLTSEDSAVYYCVRANWDVAFAYWGQGTLVSVSA
# VL: DIQMTQSPPSLSASLGGKVTITCKASQDIDRYMAWYQDKPGKGPRLLIHDTSTLQPGIPSRFSGSGSGRDYSFSISNLEPEDIATYYCLQYDNLWTFGGGTKLEIK
# modifications: Antibody Fragment; antibody fragment
# What was measured:
# [1] = biological target: T1, Hybrid LAMP1 / glycan-deleted LAMP1 transmembrane proteins; assay: Binding onto membrane-anchored hybrid or mutated LAMP1 proteins (293-F cells) by flow cytometry; design: species or system human/mouse; details: pXL6092 mLAMP1_hseq6-9-11_ΔGYQTI; Table 17 Experiment no2
# Description: Different LAMP1 proteins were expressed at the cell membrane of HEK293 cells after transient expression from mammalian plasmids encoding the entire coding sequence of LAMP1 deleted of the intracellular lysosome-targeting motif GYQTI and substituted by a 5-Ala repeat sequence.
# Two days post transfection cells were processed, analyzed by flow cytometry (Guava® easyCyte™ 8HT) as mentioned in example 4.7, and the mean fluorescence was recorded. This fluorescence represents a semi-quantitative assessment of binding.
# [2] = biological target: T2, Alascan LAMP1 transmembrane proteins (hLAMP1_ΔGYQTI mutants); assay: Ala scan of LAMP1 transmembrane proteins, flow cytometry; format: binding; details: pXL6085, D150A in hLAMP1_ΔGYQTI; loss = decrease of more than 50% of the mean fluorescence
# Text: (§1) Individual residues identified in example 6.5 and not involved in β-strand structure have been individually replaced by an alanine residue in the LAMP1 sequence derived from hLAMP1_ΔGYQTI and encoded in plasmid pXL5626 (example 6.4). A total of 21 plasmids were engineered from pXL5626 (see Table 19) and used to assay LAMP1 expression at the cell membrane of HEK293 cells after transient transfection. Two days post transfection cells were processed, analyzed by flow cytometry (Guava® easyCyte™ 8HT) as mentioned in example 4.7, and the mean fluorescence was recorded. This fluorescence represents a semi-quantitative assessment of binding. Loss of binding is reported on Table 19 when there is a decrease of more than 50% of the mean fluorescence compared to the control protein encoded from pXL5626.
# [3] = biological target: T3, Alascan LAMP1 transmembrane proteins (hLAMP1_ΔGYQTI mutants); assay: as above; format: binding; details: pXL6070, I149A in hLAMP1_ΔGYQTI; loss = decrease of more than 50% of the mean fluorescence
# Text: as §1
# [4] = biological target: T4, Alascan LAMP1 transmembrane proteins (hLAMP1_ΔGYQTI mutants); assay: as above; format: binding; details: pXL6081, R186A in hLAMP1_ΔGYQTI; loss = decrease of more than 50% of the mean fluorescence
# Text: as §1
molecule,measurement,setting,value
B1,Binding call,[1],Full binding
same,Mean fluorescence,[1],499
same,"Binding to mAb, Alascan",[2],Binding loss
same,"Binding to mAb, Alascan",[3],Binding loss
same,"Binding to mAb, Alascan",[4],Binding loss
